Results from IntAct's records for PubMed 31515488.

B1: Hypoxanthine-guanine phosphoribosyltransferase (Homo sapiens), P00492 (parent)
chain: MATRSPGVVISDDEPGYDLDLFCIPNHYAEDLERVFIPHGLIMDRTERLARDVMKEMGGHHIVALCVLKGGYKFFADLLDYIKALNRNSDRSIPMTVDFIRLKSYCNDQSTGDIKVIGGDDLSTLTGKNVLIVEDIIDTGKTMQTLLSLVRQYNPKMVKVASLLVKRTPRSVGYKPDFVGFEIPDKFVVGYALDYNEYFRDLNHVCVISETGKAKYKA
B2: Protein Dr1 (Homo sapiens), Q01658 (parent)
chain: MASSSGNDDDLTIPRAAINKMIKETLPNVRVANDARELVVNCCTEFIHLISSEANEICNKSEKKTISPEHVIQALESLGFGSYISEVKEVLQECKTVALKRRKASSRLENLGIPEEELLRQQQELFAKARQQQAELAQQEWLQMQQAAQQAQLAAASASASNQAGSSQDEEDDDDI
partner: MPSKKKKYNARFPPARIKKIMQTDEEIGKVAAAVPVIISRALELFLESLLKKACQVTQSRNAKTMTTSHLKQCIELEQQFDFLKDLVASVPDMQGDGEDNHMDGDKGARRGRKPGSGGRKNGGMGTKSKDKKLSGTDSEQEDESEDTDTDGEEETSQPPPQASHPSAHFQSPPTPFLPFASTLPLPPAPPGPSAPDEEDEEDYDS
B3: NAD kinase (Homo sapiens), O95544 (parent)
chain: MEMEQEKMTMNKELSPDAAAYCCSACHGDETWSYNHPIRGRAKSRSLSASPALGSTKEFRRTRSLHGPCPVTTFGPKACVLQNPQTIMHIQDPASQRLTWNKSPKSVLVIKKMRDASLLQPFKELCTHLMEENMIVYVEKKVLEDPAIASDESFGAVKKKFCTFREDYDDISNQIDFIICLGGDGTLLYASSLFQGSVPPVMAFHLGSLGFLTPFSFENFQSQVTQVIEGNAAVVLRSRLKVRVVKELRGKKTAVHNGLGENGSQAAGLDMDVGKQAMQYQVLNEVVIDRGPSSYLSNVDVYLDGHLITTVQGDGVIVSTPTGSTAYAAAAGASMIHPNVPAIMITPICPHSLSFRPIVVPAGVELKIMLSPEARNTAWVSFDGRKRQEIRHGDSISITTSCYPLPSICVRDPVSDWFESLAQCLHWNVRKKQAHFEEEEEEEEEG
B4: Nucleoporin p58/p45 (Homo sapiens), Q9BVL2 (parent)
chain: MSTGFSFGSGTLGSTTVAAGGTSTGGVFSFGTGASSNPSVGLNFGNLGSTSTPATTSAPSSGFGTGLFGSKPATGFTLGGTNTGIATTITTGLTLGTPATTSAATTGFSLGFNKPAASATPFALPITSTSASGLTLSSALTSTPAASTGFTLNNLGGTTATTTTASTGLSLGGALAGLGGSLFQSTNTGTSGLGQNALGLTLGTTAATSTAGNEGLGGIDFSSSSDKKSDKTGTRPEDSKALKDENLPPVICQDVENLQKFVKEQKQVQEEISRMSSKAMLKVQEDIKALKQLLSLAANGIQRNTLNIDKLKIETAQELKNAEIALRTQKTPPGLQHEYAAPADYFRILVQQFEVQLQQYRQQIEELENHLATQANNSHITPQDLSMAMQKIYQTFVALAAQLQSIHENVKVLKEQYLGYRKMFLGDAVDVFETRRAEAKKWQNTPRVTTGPTPFSTMPNAAAVAMAATLTQQQQPATGPQPSLGVSFGTPFGSGIGTGLQSSGLGSSNLGGFGTSSGFGCSTTGASTFGFGTTNKPSGSLSAGFGSSSTSGFNFSNPGITASAGLTFGVSNPASAGFGTGGQLLQLKKPPAGNKRGKR
B5: NADPH-dependent diflavin oxidoreductase 1 (Homo sapiens), Q9UHB4 (parent)
chain: MPSPQLLVLFGSQTGTAQDVSERLGREARRRRLGCRVQALDSYPVVNLINEPLVIFVCATTGQGDPPDNMKNFWRFIFRKNLPSTALCQMDFAVLGLGDSSYAKFNFVAKKLHRRLLQLGGSALLPVCLGDDQHELGPDAAVDPWLRDLWDRVLGLYPPPPGLTEIPPGVPLPSKFTLLFLQEAPSTGSEGQRVAHPGSQEPPSESKPFLAPMISNQRVTGPSHFQDVRLIEFDILGSGISFAAGDVVLIQPSNSAAHVQRFCQVLGLDPDQLFMLQPREPDVSSPTRLPQPCSMRHLVSHYLDIASVPRRSFFELLACLSLHELEREKLLEFSSAQGQEELFEYCNRPRRTILEVLCDFPHTAAAIPPDYLLDLIPVIRPRAFSIASSLLTHPSRLQILVAVVQFQTRLKEPRRGLCSSWLASLDPGQGPVRVPLWVRPGSLAFPETPDTPVIMVGPGTGVAPFRAAIQERVAQGQTGNFLFFGCRWRDQDFYWEAEWQELEKRDCLTLIPAFSREQEQKVYVQHRLRELGSLVWELLDRQGAYFYLAGNAKSMPADVSEALMSIFQEEGGLCSPDAAAYLARLQQTRRFQTETWA
partner: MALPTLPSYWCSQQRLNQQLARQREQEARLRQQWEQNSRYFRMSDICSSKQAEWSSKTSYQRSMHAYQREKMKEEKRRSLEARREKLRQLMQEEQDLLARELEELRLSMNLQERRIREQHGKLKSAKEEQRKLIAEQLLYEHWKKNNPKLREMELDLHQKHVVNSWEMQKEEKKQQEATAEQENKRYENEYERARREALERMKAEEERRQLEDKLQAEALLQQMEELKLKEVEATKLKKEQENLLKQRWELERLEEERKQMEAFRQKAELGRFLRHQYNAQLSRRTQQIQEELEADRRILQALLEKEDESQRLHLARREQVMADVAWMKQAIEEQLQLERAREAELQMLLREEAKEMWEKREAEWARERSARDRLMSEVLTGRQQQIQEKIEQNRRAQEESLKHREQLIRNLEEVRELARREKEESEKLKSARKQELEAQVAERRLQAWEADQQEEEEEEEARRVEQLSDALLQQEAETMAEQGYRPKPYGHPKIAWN
B6: Septin-12 (Homo sapiens), Q8IYM1 (parent)
chain: MDPLRRSPSPCLSSQPSSPSTPPCEMLGPVGIEAVLDQLKIKAMKMGFEFNIMVVGQSGLGKSTMVNTLFKSKVWKSNPPGLGVPTPQTLQLHSLTHVIEEKGVKLKLTVTDTPGFGDQINNDNCWDPILGYINEQYEQYLQEEILITRQRHIPDTRVHCCVYFVPPTGHCLRPLDIEFLQRLCRTVNVVPVIARADSLTMEEREAFRRRIQQNLRTHCIDVYPQMCFDEDINDKILNSKLRDRIPFAVVGADQEHLVNGRCVLGRKTKWGIIEVENMAHCEFPLLRDLLIRSHLQDLKDITHNIHYENYRVIRLNESHLLPRGPGWVNLAPASPGQLTTPRTFKVCRGAHDDSDDEF
partner: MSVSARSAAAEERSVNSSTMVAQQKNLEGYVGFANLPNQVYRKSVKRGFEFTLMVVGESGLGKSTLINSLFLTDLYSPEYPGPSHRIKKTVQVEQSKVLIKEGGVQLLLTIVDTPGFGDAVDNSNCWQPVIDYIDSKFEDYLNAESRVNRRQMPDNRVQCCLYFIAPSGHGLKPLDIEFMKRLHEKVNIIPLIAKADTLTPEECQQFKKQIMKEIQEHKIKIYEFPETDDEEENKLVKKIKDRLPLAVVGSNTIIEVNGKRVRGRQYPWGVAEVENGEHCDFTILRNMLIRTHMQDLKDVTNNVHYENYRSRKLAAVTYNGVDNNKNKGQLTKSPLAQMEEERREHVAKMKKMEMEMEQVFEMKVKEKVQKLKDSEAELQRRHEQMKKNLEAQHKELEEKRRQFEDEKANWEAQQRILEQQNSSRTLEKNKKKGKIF
B7: Golgin-45 (Homo sapiens), Q9H2G9 (parent)
chain: MTTKNLETKVTVTSSPIRGAGDGMETEEPPKSVEVTSGVQSRKHHSLQSPWKKAVPSESPGVLQLGKMLTEKAMEVKAVRILVPKAAITHDIPNKNTKVKSLGHHKGEFLGQSEGVIEPNKELSEVKNVLEKLKNSERRLLQDKEGLSNQLRVQTEVNRELKKLLVASVGDDLQYHFERLAREKNQLILENEALGRNTAQLSEQLERMSIQCDVWRSKFLASRVMADELTNSRAALQRQNRDAHGAIQDLLSEREQFRQEMIATQKLLEELLVSLQWGREQTYSPSVQPHSTAELALTNHKLAKAVNSHLLGNVGINNQKKIPSTVEFCSTPAEKMAETVLRILDPVTCKESSPDNPFFESSPTTLLATKKNIGRFHPYTRYENITFNCCNHCRGELIAL
B8: 5'-AMP-activated protein kinase subunit beta-2 (Homo sapiens), O43741 (parent)
chain: MGNTTSDRVSGERHGAKAARSEGAGGHAPGKEHKIMVGSTDDPSVFSLPDSKLPGDKEFVSWQQDLEDSVKPTQQARPTVIRWSEGGKEVFISGSFNNWSTKIPLIKSHNDFVAILDLPEGEHQYKFFVDGQWVHDPSEPVVTSQLGTINNLIHVKKSDFEVFDALKLDSMESSETSCRDLSSSPPGPYGQEMYAFRSEERFKSPPILPPHLLQVILNKDTNISCDPALLPEPNHVMLNHLYALSIKDSVMVLSATHRYKKKYVTTLLYKPI
B9: Spindle and kinetochore-associated protein 3 (Homo sapiens), Q8IX90 (parent)
chain: MDPIRSFCGKLRSLASTLDCETARLQRALDGEESDFEDYPMRILYDLHSEVQTLKDDVNILLDKARLENQEGIDFIKATKVLMEKNSMDIMKIREYFQKYGYSPRVKKNSVHEQEAINSDPELSNCENFQKTDVKDDLSDPPVASSCISEKSPRSPQLSDFGLERYIVSQVLPNPPQAVNNYKEEPVIVTPPTKQSLVKVLKTPKCALKMDDFECVTPKLEHFGISEYTMCLNEDYTMGLKNARNNKSEEAIDTESRLNDNVFATPSPIIQQLEKSDAEYTNSPLVPTFCTPGLKIPSTKNSIALVSTNYPLSKTNSSSNDLEVEDRTSLVLNSDTCFENLTDPSSPTISSYENLLRTPTPPEVTKIPEDILQLLSKYNSNLATPIAIKAVPPSKRFLKHGQNIRDVSNKEN

Variants of: B1
Details: with sdcb1_human SDCBP
Target sequence in this assay (O00560 whole entry): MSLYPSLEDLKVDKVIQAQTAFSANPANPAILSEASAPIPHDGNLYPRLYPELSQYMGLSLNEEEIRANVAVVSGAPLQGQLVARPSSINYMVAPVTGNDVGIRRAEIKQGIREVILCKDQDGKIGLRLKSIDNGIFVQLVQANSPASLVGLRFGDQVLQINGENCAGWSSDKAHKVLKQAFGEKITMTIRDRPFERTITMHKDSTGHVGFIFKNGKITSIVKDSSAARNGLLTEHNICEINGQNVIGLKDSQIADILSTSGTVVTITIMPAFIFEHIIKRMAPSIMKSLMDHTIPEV
C206Y was tested, and the “effect of a mutation on the interaction” value was “disrupting interaction strength”.
For P38S, the “effect of a mutation on the interaction” value was “disrupting interaction strength”.

Variants of: B1
Details: with iscu_human ISCU
With C206Y the “effect of a mutation on the interaction” value was “disrupting interaction strength”.
P38S was tested, and the “effect of a mutation on the interaction” value was “disrupting interaction strength”.

Variants of: B1
Details: with prdc1_human PRTFDC1, Q9NRG1
prdc1_human PRTFDC1, Q9NRG1, sequence (Q9NRG1 whole entry): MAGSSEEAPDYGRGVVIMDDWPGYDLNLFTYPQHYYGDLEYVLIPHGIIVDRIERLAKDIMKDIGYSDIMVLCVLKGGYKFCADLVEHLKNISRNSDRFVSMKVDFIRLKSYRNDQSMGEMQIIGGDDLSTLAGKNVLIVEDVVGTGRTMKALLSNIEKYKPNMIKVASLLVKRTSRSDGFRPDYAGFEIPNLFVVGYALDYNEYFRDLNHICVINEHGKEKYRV
For C206Y, the “effect of a mutation on the interaction” value was “with no effect”.
With P38S the “effect of a mutation on the interaction” value was “with no effect”.

Variants of: B1
Details: with ntaq1_human NTAQ1, Q96HA8
C206Y was tested, and the “effect of a mutation on the interaction” value was “disrupting interaction strength”.
For P38S, the “effect of a mutation on the interaction” value was “disrupting interaction strength”.

Variants of: B2
Details: with nc2a_human DRAP1, Q14919
For E171D, the “effect of a mutation on the interaction” value was “with no effect”.

Variants of: B3
Details: with sdcb1_human SDCBP
Target sequence in this assay (O00560 whole entry): as the sequence (O00560 whole entry) above
With R249W the “effect of a mutation on the interaction” value was “with no effect”.

Variants of: B4
Details: with nup62_human NUP62, P37198
nup62_human NUP62, P37198, sequence (P37198 whole entry): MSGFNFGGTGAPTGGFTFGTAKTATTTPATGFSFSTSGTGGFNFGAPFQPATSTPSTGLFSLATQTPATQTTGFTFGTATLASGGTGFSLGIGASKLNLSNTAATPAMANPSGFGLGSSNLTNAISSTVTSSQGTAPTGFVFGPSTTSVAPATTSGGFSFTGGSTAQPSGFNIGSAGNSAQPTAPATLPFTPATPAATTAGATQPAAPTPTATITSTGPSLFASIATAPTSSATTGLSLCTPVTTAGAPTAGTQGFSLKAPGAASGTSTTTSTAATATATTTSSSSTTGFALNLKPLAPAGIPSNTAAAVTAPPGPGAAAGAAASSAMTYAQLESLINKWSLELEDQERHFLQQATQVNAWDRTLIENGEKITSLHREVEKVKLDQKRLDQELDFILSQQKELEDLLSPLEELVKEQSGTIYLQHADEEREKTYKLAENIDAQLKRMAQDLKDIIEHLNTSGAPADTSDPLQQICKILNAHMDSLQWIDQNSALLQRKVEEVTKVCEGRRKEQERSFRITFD
A34T was tested, and the “effect of a mutation on the interaction” value was “with no effect”.

Variants of: B4
Details: with traf1_human TRAF1, Q13077
traf1_human TRAF1, Q13077, sequence (Q13077 whole entry): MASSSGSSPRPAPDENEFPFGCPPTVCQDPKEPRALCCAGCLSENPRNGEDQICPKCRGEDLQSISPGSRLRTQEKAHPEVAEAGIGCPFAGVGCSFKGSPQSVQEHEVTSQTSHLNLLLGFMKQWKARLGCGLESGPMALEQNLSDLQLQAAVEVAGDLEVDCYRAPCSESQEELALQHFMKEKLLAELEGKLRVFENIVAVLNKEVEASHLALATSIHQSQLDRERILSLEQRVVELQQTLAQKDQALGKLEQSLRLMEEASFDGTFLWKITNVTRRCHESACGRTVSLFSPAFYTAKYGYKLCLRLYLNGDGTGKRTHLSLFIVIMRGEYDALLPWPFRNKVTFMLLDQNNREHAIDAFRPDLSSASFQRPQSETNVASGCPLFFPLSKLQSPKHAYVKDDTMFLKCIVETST
A34T was tested, and the “effect of a mutation on the interaction” value was “with no effect”.

Variants of: B5
Details: with tchp_human TCHP
For P281L, the “effect of a mutation on the interaction” value was “disrupting interaction strength”.

Variants of: B6
Details: with sept7_human SEPTIN7, Q16181
D197N was tested, and the “effect of a mutation on the interaction” value was “disrupting interaction strength”.
For G169E, the “effect of a mutation on the interaction” value was “disrupting interaction strength”.

Variants of: B7
Details: with aakb2_human PRKAB2, O43741
For H45R, the “effect of a mutation on the interaction” value was “with no effect”.
For Q40R, the “effect of a mutation on the interaction” value was “with no effect”.

Variants of: B7
Details: with rab2a_human RAB2A
For H45R, the “effect of a mutation on the interaction” value was “with no effect”.
With Q40R the “effect of a mutation on the interaction” value was “with no effect”.

Variants of: B7
Details: with zbt24_human ZBTB24, O43167
zbt24_human ZBTB24, O43167, sequence (O43167 whole entry): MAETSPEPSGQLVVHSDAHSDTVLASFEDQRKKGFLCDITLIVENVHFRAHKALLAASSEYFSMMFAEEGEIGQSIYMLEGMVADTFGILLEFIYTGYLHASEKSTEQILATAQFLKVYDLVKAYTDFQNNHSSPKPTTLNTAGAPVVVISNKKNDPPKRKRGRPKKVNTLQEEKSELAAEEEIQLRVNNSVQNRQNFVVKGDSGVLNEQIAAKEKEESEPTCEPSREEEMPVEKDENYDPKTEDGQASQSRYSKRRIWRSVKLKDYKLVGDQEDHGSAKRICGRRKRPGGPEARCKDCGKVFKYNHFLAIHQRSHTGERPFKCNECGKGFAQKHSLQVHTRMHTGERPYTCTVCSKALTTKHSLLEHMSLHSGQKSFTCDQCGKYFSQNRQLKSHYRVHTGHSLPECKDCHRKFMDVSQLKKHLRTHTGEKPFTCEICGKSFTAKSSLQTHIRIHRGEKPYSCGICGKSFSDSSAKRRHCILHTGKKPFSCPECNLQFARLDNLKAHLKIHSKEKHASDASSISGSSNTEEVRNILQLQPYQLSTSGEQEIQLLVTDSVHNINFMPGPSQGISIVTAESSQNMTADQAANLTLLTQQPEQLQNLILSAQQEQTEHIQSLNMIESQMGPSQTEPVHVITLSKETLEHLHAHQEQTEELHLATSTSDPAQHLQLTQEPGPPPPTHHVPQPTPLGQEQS
In the case of H45R, the “effect of a mutation on the interaction” value is reported as “with no effect”.
With Q40R the “effect of a mutation on the interaction” value was “with no effect”.

Variants of: B8
Details: with oxda_human DAO
For G55E, the “effect of a mutation on the interaction” value was “with no effect”.

Variants of: B8
Details: with mdfi_human MDFI
In the case of G55E, the “effect of a mutation on the interaction” value is reported as “with no effect”.

Variants of: B8
Details: with crx_human CRX
G55E was tested, and the “effect of a mutation on the interaction” value was “with no effect”.

Variants of: B8
Details: with cdx4_human CDX4, O14627
cdx4_human CDX4, O14627, sequence (O14627 whole entry): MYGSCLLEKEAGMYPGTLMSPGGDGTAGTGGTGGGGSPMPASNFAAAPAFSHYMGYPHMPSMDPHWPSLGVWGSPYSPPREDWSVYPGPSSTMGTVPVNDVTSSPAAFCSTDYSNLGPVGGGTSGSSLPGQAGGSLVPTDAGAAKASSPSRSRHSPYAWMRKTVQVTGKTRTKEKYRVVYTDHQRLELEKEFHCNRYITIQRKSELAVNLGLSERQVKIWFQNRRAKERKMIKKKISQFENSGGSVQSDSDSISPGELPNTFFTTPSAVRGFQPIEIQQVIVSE
For G55E, the “effect of a mutation on the interaction” value was “with no effect”.

Variants of: B9
Details: with ska1_human SKA1, Q96BD8
ska1_human SKA1, Q96BD8, sequence (Q96BD8 whole entry): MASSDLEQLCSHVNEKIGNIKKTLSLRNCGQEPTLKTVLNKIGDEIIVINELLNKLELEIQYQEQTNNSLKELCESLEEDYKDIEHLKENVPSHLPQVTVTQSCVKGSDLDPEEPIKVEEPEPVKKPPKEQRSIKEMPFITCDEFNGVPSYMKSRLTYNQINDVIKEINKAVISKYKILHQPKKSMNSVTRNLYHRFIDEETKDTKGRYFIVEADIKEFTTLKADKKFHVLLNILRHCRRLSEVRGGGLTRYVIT
With A28V the “effect of a mutation on the interaction” value was “with no effect”.
